Measurements: patent US11129879B2, “Methods for the treatment of neurological disorders and diseases using FNDC5” (Dana-Farber Cancer Institute, Inc., priority 2013, dated 2021)

Experiments:
primary cortical neurons [1] = experiment: gene expression by qPCR in cultured primary cortical neurons; type: cell-based, mouse; settings: for Fndc5 gene expression: 1 μM; for Fndc5 gene expression / Fndc5 mRNA expression: DIV 7, vs vehicle; for Fndc5 mRNA expression: 100 ng/ml
Description: (§1) Primary cortical and hippocampal neurons were isolated as described in great detail previously in Bartlett and Banker (1984) J. Neurosci. 4, 1944-1953. Briefly, cortices and hippocampi were dissected from E16-E18 embryos, dissociated with trypsin (Sigma) and DNAse (Roche), and plated on poly-L-lysine-coated (Sigma) plates. Dissociated neurons were cultured in Neurobasal Media supplemented with B27, GlutaMAX™ (Life Technologies), and Penicillin-Streptomycin (Cellgro).
(§2) Cells or tissues were lysed and homogenized in TRIzol (Invitrogen). Total RNA was subsequently isolated using the RNeasy Mini or Micro Kit (Qiagen). First-strand cDNA was generated using the High Capacity cDNA Reverse Transcription Kit (Life Technologies), and qPCR was performed using SYBR Green Master Mix in a 7900HT Real-Time PCR system (Applied Biosystems). mRNA quantities were normalized to Rsp18 after determination by the comparative Ct method (Schmittgen and Livak (2008) Nat. Protocols 3, 1101-1108).
Primary cortical neurons were transduced at the indicated time-points and were harvested 48 hrs later for RNA isolation. For knockdown studies, primary cortical neurons were transduced with viral supernatants from HEK293T cells transfected with pLKO.1 vector (TRC) containing the specified shRNAs at the indicated time-points.

substantia nigra = settings: 4 mg/kg/d, harvested 2 days later, microarray, vs untreated mice; cited from earlier work
SH-SSY5Y neurons = experiment: Fndc5 gene expression by qPCR in SH-SSY5Y neurons; type: cell-based, human; settings: treatment with the neurotoxin
Description: The cells were differentiated with retinoic acid. Gene expression was assessed with qPCR.

primary cortical neurons [2] = experiment: binding of irisinFc to PFA-fixed cultured neurons, detected by secondary anti-human Fc fluorescent antibody; design: species or system mouse; settings: PFA-fixed cultures, vs humanFc
Description: PFA-fixed cultured primary cortical neurons were incubated with either irisin-Fc or humanFc as control and binding of irisinFc was detected by a secondary anti-human Fc fluorescent antibody. IrisinFc clearly binds to neurons in culture, especially given that the observed pattern of the binding and the fact that the cultures are highly enriched in neurons (>90%).

Wild type C56/B16 mice = experiment: peripheral injections of irisin-Fc, Bdnf gene expression by qPCR; type: in vivo, mouse; settings: 5 mg/kg i.p., RNA 10d later, vs humanFc
Description: Wild type C56/B16 mice were injected with either irisinFc or humanFc (5 mg/kg) i.p. Total RNA for qPCR was harvested 10d later. Results are shown as mean+SEM, n=6, *P<0.05.

[3] = system: human embryonic stem cells differentiated into motor neurons (eMN); experiment: human embryonic stem cells differentiated into motor neurons (eMN), gene expression by qPCR; type: cell-based
Description: Gene expression was assessed with qPCR.
Growth of human embryonic stem cells, differentiation of human embryonic stem cells into motor neurons, and glial co-culture were performed as described in DiGiorgio et al. (2008) Cell Stem Cell 3:637-648.

primary cortical neurons [4] = experiment: CellTiter-Glo Luminescent Cell Viability Assay of cultured neurons; type: cell-based, mouse; settings: treatment during in vitro culture for 7 days, relative to hFc
Description: Cell viability of cultured neurons was assessed using CellTiter-Glo® Luminescent Cell Viability Assay (Promega, Madison, Wis.) according to the manufacturer's instructions. Luminescence of cell lysates was measured using the FLUOstar Omega plate reader (BMG LABTECH, Offenburg, Germany).

[5] = system: primary hippocampal neurons; experiment: gene expression by qPCR in cultured primary hippocampal neurons; type: cell-based, mouse
Description: At the indicated days in vitro (DIV) mRNA was prepared and gene expression was assessed by qPCR. Data are shown as mRNA levels relative to Rsp18 expression, expressed as mean±SEM. *P<0.05 compared to DIV 1 control group. […] Forty-eight hours later mRNA was prepared and gene expression was assessed by qPCR. Data are shown as mRNA levels relative to Rsp18 expression, expressed as mean±SEM. *P<0.05 compared to corresponding GFP expressing control group. […] Four days later mRNA was prepared and gene expression was assessed by qPCR. Data are shown as mRNA levels relative to Rsp18 expression, expressed as mean±SEM. *P<0.05 compared to corresponding shLuc expressing control group. […] Data are shown as mRNA levels relative to Rsp18 expression, expressed as mean±SEM. *P<0.05 compared to vehicle only group. […] Four days later mRNA was prepared and gene expression was assessed by qPCR. Data are shown as mRNA levels relative to Rsp18 expression, expressed as mean±SEM. *P<0.05 compared to corresponding shLuc expressing control group. […] Data are shown as mRNA levels relative to Rsp18 expression, expressed as mean±SEM. *P<0.05 compared to vehicle only group.
as §1
as §2, with “Total RNA was subsequently isolated using the RNeasy Mini or Micro Kit (Qiagen).” left out

primary cortical neurons [6] = experiment: irisin stimulation of silenced primary cortical neurons, mRNA levels of genes of interest; type: cell-based, mouse; settings: 1 ug/mL (Enzo) at DIV7 after silencing with 1 uM TTX and 100 uM APV; time course, p<0.05 from baseline
Description: Primary cortical neurons were silenced at DIV6 with 1 uM TTX and 100 uM APV overnight. The neurons were then stimulated at DIV7 using irisin (1 ug/mL; Enzo; Product No. ADI-908-307-0010). […] In a separate analysis, primary cortical neurons were silenced at DIV6 with 1 uM TTX and 10 uM MK801 overnight. […] In still a separate analysis, primary cortical neurons were silenced at DIV6 with 1 uM TTX and 100 uM APS overnight. The neurons were then stimulated at […] using irisin (1 ug/mL; Enzo; Product No. ADI-908-307-0010). […] In yet another separate analysis, primary cortical neurons were silenced at DIV7 with 1 uM TTX and 100 uM APS overnight. The neurons were then stimulated at DIV8 using 1 ug/mL of irisin from one of two vendors (i.e., either from Enzo, Product No. ADI-908-307-0010, or from Phoenix, Product No. 067-29A).

[7] = 5× concentrated conditioned media from CHO cell lines, RNA next day, vs hFc
[8] = 1 ug/ml at DIV 5 and 6, vs vehicle

## CCN(CC)c1ccc(/C=N/NC(=O)c2ccc(O)cc2)cc1 [DY131, reference compound]
Primary cortical neurons [1]; overnight
  Fndc5 gene expression: had no effect on Fndc5 gene expression

## Cc1cc(SCc2sc(-c3ccc(C(F)(F)F)c(F)c3)nc2C)ccc1OCC(=O)O [GW0742, reference compound]
Primary cortical neurons [1]; overnight
  Fndc5 gene expression: no effect on Fndc5 gene expression

## CC(C)(Sc1ccc(CCN(CCCCC2CCCCC2)C(=O)NC2CCCCC2)cc1)C(=O)O [GW7647, reference compound]
Primary cortical neurons [1]; overnight
  Fndc5 gene expression: no effect on Fndc5 gene expression

## COC(=O)[C@@]1(O)C[C@H]2O[C@]1(C)n1c3ccccc3c3c4c(c5c6ccccc6n2c5c31)C(=O)NC4 [K252a, reference compound]
Primary cortical neurons [1]; pre-incubation with 50 nM, then BDNF 100 ng/ml overnight
  reduction of Fndc5 mRNA expression by BDNF: This effect was abolished

## CN1CC=C(c2ccccc2)CC1 [MPTP, 1-methyl-4-phenyl-1,2,3,6-tetrahydropyridine]
Substantia nigra
  Fndc5 expression in substantia nigra: significantly lower Fndc5 expression

## COc1cc(/C=C(\C#N)C(=O)Nc2nnc(C(F)(F)F)s2)ccc1OCc1ccc(C(F)(F)F)cc1C(F)(F)F [XCT 790, reference compound]
Primary cortical neurons [1]; overnight
  Fndc5 gene expression: significantly reduced Fndc5 gene expression

## C=C(C)[C@H]1Cc2c(ccc3c2O[C@@H]2COc4cc(OC)c(OC)cc4[C@@H]2C3=O)O1 [rotenone]
SH-SSY5Y neurons
  Fndc5 gene expression: reduces Fndc5 gene expression

## IGF-1: recombinant mouse insulin-like growth factor 1, R&D Systems
Primary cortical neurons [1]; overnight
  Fndc5 mRNA expression: only BDNF stimulation significantly reduced

B1: irisinFc: Fc fusion of irisin (murine Fndc5 residues 29-140); amino acid sequence given in b228 (protein)
chain: DSPSAPVNVTVRHLKANSAVVSWDVLEDEVVIGFAISQQKKDVRMLRFIQEVNTTTRSCALWDLEEDTEYIVHVQAISIQGQSPASEPVLFKTPREAEKMASKNKDEVTMKEGGGGAGGGGVECPPCPAPPVAGPSVFLFPPKPKDTLMISRTPEVTCVVVDVSHEDPEVQFNWYVDGVEVHNAKTKPREEQFNSTFRVVSVLTVVHQDWLNGKEYKCKVSNKGLPAPIEKTISKTKGQPREPQVYTLPPSREEMTKNQVSLTCLVKGFYPSDIAVEWESNGQPENNYKTTPPMLDSDGSFFLYSKLTVDKSRWQQGNVFSCSVMHEALHNHYTQKSLSLSPGK
modifications: /note=“Description of Artificial Sequence IrisinFc polypeptide”
Primary cortical neurons [1]; [7]
  Bdnf expression: increased expression of Fndc5 and Bdnf
  Fndc5 expression: increased expression of Fndc5 and Bdnf
Primary cortical neurons [2]
  binding to neurons: neurons bind irisinFc
Wild type C56/B16 mice
  Bdnf expression in the cerebellum: significant increase in Bdnf expression
  Bdnf expression in the sciatic nerve: significant increase in Bdnf expression
[3]
  eMN synapse formation: increases eMN synapse formation
  motor neuron differentiation of eMN: promotes motor neuron differentiation
Primary cortical neurons [4]
  cell viability: significantly increased cell viability

B2: BDNF: recombinant human brain-derived neurotrophic factor, PeproTech (protein)
chain: HSDPARRGELSVCDSISEWVTAADKKTAVDMSGGTVTVLEKVPVSKGQLKQYFYETKCNPMGYTKEGCRGIDKRHWNSQCRTTQSYVRALTMDSKKRIGWRFIRIDTSCVCTLTIKRGR
Primary cortical neurons [1]; overnight
  Fndc5 mRNA expression: only BDNF stimulation significantly reduced Fndc5 mRNA expression
Primary cortical neurons [1]; overnight, 0.1-100 ng/ml tested, dose-response observed
  lowest concentration that significantly reduced Fndc5 gene expression: 1 ng/mL
[5]; 100 ng/ml, overnight, DIV 7, vs vehicle
  Fndc5 gene expression: reduced Fndc5 gene expression

B3: CNTF: recombinant human ciliary neurotrophic factor, Sigma (protein, UniProt P26441 1-200, looked up)
Ciliary neurotrophic factor: MAFTEHSPLTPHRRDLCSRSIWLARKIRSDLTALTESYVKHQGLNKNINLDSADGMPVASTDQWSELTEAERLQENLQAYRTFHVLLARLLEDQQVHFTPTEGDFHQAIHTLLLQVAAFAYQIEELMILLEYKIPRNEADGMPINVGDGGLFEKKLWGLKVLQELSQWTVRSIHDLRFISSHQTGIPARGSHYIANNKKM
Primary cortical neurons [1]; overnight
  Fndc5 mRNA expression: only BDNF stimulation significantly reduced

B4: GDNF: recombinant human glial cell-derived neurotrophic factor, Sigma (protein, UniProt P39905 78-211, looked up)
Glial cell line-derived …: SPDKQMAVLPRRERNRQAAAANPENSRGKGRRGQRGKNRGCVLTAIHLNVTDLGLGYETKEELIFRYCSGSCDAAETTYDKILKNLSRNRRLVSDKVGQACCRPIAFDDDLSFLDDNLVYHILRKHSAKRCGCI
Primary cortical neurons [1]; overnight
  Fndc5 mRNA expression: only BDNF stimulation significantly reduced

B5: NGF: recombinant mouse nerve growth factor, EMD Millipore (protein, UniProt P01139 122-241, looked up)
Beta-nerve growth factor: SSTHPVFHMGEFSVCDSVSVWVGDKTTATDIKGKEVTVLAEVNINNSVFRQYFFETKCRASNPVESGCRGIDSKHWNSYCTTTHTFVKALTTDEKQAAWRFIRIDTACVCVLSRKATRRG
Primary cortical neurons [1]; overnight
  Fndc5 mRNA expression: only BDNF stimulation significantly reduced

B6: recombinant irisin: commercially available recombinant irisin, secreted form of FNDC5 (Phoenix Pharmaceuticals; Enzo in b292) (protein, UniProt Q8NAU1 1-191, looked up)
Irisin: MQAARGGAGRPERPGRPGRGPERERERPPGAGAASPCAAPGLPAGGATIHPGSPSAWPPRARAALRLWLGCVCFALVQADSPSAPVNVTVRHLKANSAVVSWDVLEDEVVIGFAISQQKKDVRMLRFIQEVNTTTRSCALWDLEEDTEYIVHVQAISIQGQSPASEPVLFKTPREAEKMASKNKDEVTMKE
modifications: Irisin
Primary cortical neurons [6]
  changes in mRNA levels of genes of interest: many of the analyzed genes have statistically significant changes
[5]; [8]
  Bdnf gene expression: did not reach statistical significance
  gene program (Arc, cFos, Npas4, and Zif268): induced a similar gene program
